Results on 1 protein are retold here after paper PMC7393112.

Substrate in the data set: C[C@@H](O)C(=O)O
Briefly: purified protein. To be noted: DCIP as co-substrate, D-lactate 5-300 µM, pH of the kinetic assay not given (optimum pH 8.75).

B1: OsD-LDH2 (Oryza sativa Japonica Group) (protein)
chain: MARRAAAGLLRRHLGPLAAGETLQARGMYPKQYGAANHAFSRFYSIQGQQRSLYGFRTNVETDDTQQSARMNFEVQKRSFSSAAAHVQRNPAYSVLNSDDVSYFKSILGDSGVVQDEDRVSVANMDWMGKYKGSSQLLLLPKSTAEVSKILSYCNSRRLAVVPQGGNTGLVGGSVPVYDEVIISLGGMDKIITFDNVNGILTCEAGCVLENLSSYVENKGFIMPLDLGAKGSCHIGGNISTNAGGLRFIRYGSLHGSVLGLEVVLADGTVLDMLTTLRKDNTGYDLKHLFIGSEGSLGIVTKIAILTPAKLPSTNVAFLSCNDYISCQKLLLAARRSLGEILSAFEFMDRHCINLAMKYLEGVHNPLPVSPFNFYVLIETTGSDESYDKAKLEAFLLRSMEDGLVADGVIAQDISQASNFWRIREGISEASVKVGAVYKYDLSIPVEKLYDIVEEMRSRVGDMGQVLGYGHLGDGNLHLNILSTKYSDKMLAQIEPFVYEWTSKQRGSISAEHGLGLMKAEKIHYSKSSEAVQLMASIKKLLDPNSILNPYKVLPQSVL
Usually Km stands for the substrate concentration at which the rate is half of its maximum. As usually defined, the kcat is the maximal rate divided by the concentration of active sites. What is called kcat/Km is the turnover number divided by the Michaelis constant. As for B1, the Km is recorded as 8.045 ± 1.7 µM, the kcat was 3.27 s⁻¹ and the kcat/Km was found to be 407000 M⁻¹ s⁻¹.
